Target: S. cerevisiae full-length Ty3 integrase (assembled on Ty3 LTR DNA as the Ty3 intasome) (S. cerevisiae)
Assay: cryo-EM structure; minimal integration machinery: Ty3 intasome with TFIIIB on unlabelled 55-bp tD(GUC)K DNA, without TFIIIC; gel filtration in 40 mM Tris pH 7, 80 mM NaCl, 7 mM MgCl2, 1 mM DTT; un-crosslinked; strand-transfer complex, 4.0 Å

stoichiometry N: 4
Substance: S. cerevisiae full-length Ty3 integrase (assembled on Ty3 LTR DNA as the Ty3 intasome) (enzyme)

— PMC8632968
